The numbers were not newly measured in paper PMC4623604, “Discovery of Small Molecules that Inhibit the Disordered Protein, p27^Kip1” (Scientific Reports, 2015), which cites them from elsewhere.

For this data set, the target named is cyclin A (Homo sapiens) (UniProt P20248).
cyclin A (Homo sapiens), sequence (P20248 whole entry): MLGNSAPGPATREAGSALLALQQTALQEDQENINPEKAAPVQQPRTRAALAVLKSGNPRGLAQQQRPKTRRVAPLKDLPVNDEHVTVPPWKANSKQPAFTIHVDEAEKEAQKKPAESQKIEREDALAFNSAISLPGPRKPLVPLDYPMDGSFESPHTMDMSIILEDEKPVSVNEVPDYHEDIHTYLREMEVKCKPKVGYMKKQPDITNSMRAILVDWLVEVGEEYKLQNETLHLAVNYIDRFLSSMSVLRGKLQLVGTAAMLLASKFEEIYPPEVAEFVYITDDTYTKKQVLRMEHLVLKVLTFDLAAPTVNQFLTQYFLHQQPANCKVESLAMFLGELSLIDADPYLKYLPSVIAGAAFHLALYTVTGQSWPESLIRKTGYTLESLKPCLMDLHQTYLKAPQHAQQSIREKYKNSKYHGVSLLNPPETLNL

Regarding p27 D1 (from UniProt P46527), the Kd – broadly, the concentration at which binding is half-saturated – is 42 nM.
